Experimental data reported in the supplement of paper PMC6757056.
± gives the standard deviation of the averaged measurements.

B1: library; a variant is named by its letters at N, in order (parent)
chain: GCUGUCACCGAGAAACUGUGAAGUAUAUCUUAAACCUGGGCACUUAAAAGAUAUAUGGAGUUAGUAGUGCAACCUGCUCGGUCUGAUGAGUCCNNNNNNGGACGAAACAGC

Columns and labels:
[1] = variants of: B1; test: normalized RNA/DNA level without ligand (relative to sTRSVctl = 100) (log10 (% of sTRSVctl)); HEK293T; ligand: cyclic di-GMP (c-di-GMP-II aptamer); higher = less ribozyme self-cleavage, higher mRNA level; conditions: reporter: mCherry (pCS4076), ligand present: no
Summary of the method: (§1)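 Library plasmids carrying ribozyme switches linked to mCherry, or to eGFP in some ligand experiments, were transfected into HEK293T at 4 µg per 6-well well, with any ligand added 1 h earlier. Seventy-two hours on, total RNA was extracted with EDTA and reverse-transcribed, amplified, barcoded and sequenced. RNA level was RNA over DNA reads normalized to a spiked-in non-cleaving sequence or to the top sequences, then scaled and log-transformed. The top set was 25 sequences, the transform was ×100 and log10, and sequences needed ≥100 DNA reads.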

[2] = variants of: B1; test: normalized RNA/DNA level with ligand (relative to sTRSVctl = 100) (log10 (% of sTRSVctl)); HEK293T; ligand: cyclic di-GMP (c-di-GMP-II aptamer); ligand concentration (+) RNA-Seq: 1 mM; higher = less ribozyme self-cleavage, higher mRNA level; conditions: reporter: mCherry (pCS4076), ligand present: yes
Summary of the method: as §1

Variant | normalized RNA/DNA level without ligand (log10) [1] | normalized RNA/DNA level with ligand (log10) [2]
GCUGUCACCGAGAAACUGUGAAGUAUAUCUUAAACCUGGGCACUUAAAAGAUAUAUGGAGUUAGUAGUGCAACCUGCUCGGUCUGAUGAGUCCUAUUUCGGACGAAACAGC [UAUUUC] | 1.75 ± 0.0095 | 1.87 ± 0.1
GCUGUCACCGAGAAACUGUGAAGUAUAUCUUAAACCUGGGCACUUAAAAGAUAUAUGGAGUUAGUAGUGCAACCUGCUCGGUCUGAUGAGUCCUAUUUAGGACGAAACAGC [UAUUUA] | 1.707 ± 0.0067 | 1.84 ± 0.12
GCUGUCACCGAGAAACUGUGAAGUAUAUCUUAAACCUGGGCACUUAAAAGAUAUAUGGAGUUAGUAGUGCAACCUGCUCGGUCUGAUGAGUCCUAUUUGGGACGAAACAGC [UAUUUG] | 1.732 ± 0.0073 | 1.86 ± 0.1
GCUGUCACCGAGAAACUGUGAAGUAUAUCUUAAACCUGGGCACUUAAAAGAUAUAUGGAGUUAGUAGUGCAACCUGCUCGGUCUGAUGAGUCCAAUUUGGGACGAAACAGC [AAUUUG] | 1.62 ± 0.071 | 1.75 ± 0.12
GCUGUCACCGAGAAACUGUGAAGUAUAUCUUAAACCUGGGCACUUAAAAGAUAUAUGGAGUUAGUAGUGCAACCUGCUCGGUCUGAUGAGUCCAAUUUCGGACGAAACAGC [AAUUUC] | 1.721 ± 0.0067 | 1.87 ± 0.08
GCUGUCACCGAGAAACUGUGAAGUAUAUCUUAAACCUGGGCACUUAAAAGAUAUAUGGAGUUAGUAGUGCAACCUGCUCGGUCUGAUGAGUCCAAUUUAGGACGAAACAGC [AAUUUA] | 1.61 ± 0.031 | 1.81 ± 0.15
GCUGUCACCGAGAAACUGUGAAGUAUAUCUUAAACCUGGGCACUUAAAAGAUAUAUGGAGUUAGUAGUGCAACCUGCUCGGUCUGAUGAGUCCGAUUUCGGACGAAACAGC [GAUUUC] | 1.79 ± 0.13 | 1.9 ± 0.12
GCUGUCACCGAGAAACUGUGAAGUAUAUCUUAAACCUGGGCACUUAAAAGAUAUAUGGAGUUAGUAGUGCAACCUGCUCGGUCUGAUGAGUCCGAUUUGGGACGAAACAGC [GAUUUG] | 1.6 ± 0.025 | 1.76 ± 0.11
GCUGUCACCGAGAAACUGUGAAGUAUAUCUUAAACCUGGGCACUUAAAAGAUAUAUGGAGUUAGUAGUGCAACCUGCUCGGUCUGAUGAGUCCGAUUUUGGACGAAACAGC [GAUUUU] | 1.656 ± 0.01 | 1.81 ± 0.14
GCUGUCACCGAGAAACUGUGAAGUAUAUCUUAAACCUGGGCACUUAAAAGAUAUAUGGAGUUAGUAGUGCAACCUGCUCGGUCUGAUGAGUCCUAUUGUGGACGAAACAGC [UAUUGU] | 1.67 ± 0.034 | 1.81 ± 0.11
GCUGUCACCGAGAAACUGUGAAGUAUAUCUUAAACCUGGGCACUUAAAAGAUAUAUGGAGUUAGUAGUGCAACCUGCUCGGUCUGAUGAGUCCUAUUGGGGACGAAACAGC [UAUUGG] | 1.75 ± 0.061 | 1.87 ± 0.076
GCUGUCACCGAGAAACUGUGAAGUAUAUCUUAAACCUGGGCACUUAAAAGAUAUAUGGAGUUAGUAGUGCAACCUGCUCGGUCUGAUGAGUCCUAUUGAGGACGAAACAGC [UAUUGA] | 1.6713 ± 0.00062 | 1.83 ± 0.1
GCUGUCACCGAGAAACUGUGAAGUAUAUCUUAAACCUGGGCACUUAAAAGAUAUAUGGAGUUAGUAGUGCAACCUGCUCGGUCUGAUGAGUCCUAUUGCGGACGAAACAGC [UAUUGC] | 1.76 ± 0.025 | 1.87 ± 0.088
GCUGUCACCGAGAAACUGUGAAGUAUAUCUUAAACCUGGGCACUUAAAAGAUAUAUGGAGUUAGUAGUGCAACCUGCUCGGUCUGAUGAGUCCCAUUUGGGACGAAACAGC [CAUUUG] | 1.75 ± 0.062 | 1.91 ± 0.095
GCUGUCACCGAGAAACUGUGAAGUAUAUCUUAAACCUGGGCACUUAAAAGAUAUAUGGAGUUAGUAGUGCAACCUGCUCGGUCUGAUGAGUCCCAUUUUGGACGAAACAGC [CAUUUU] | 1.535 ± 0.0069 | 1.76 ± 0.16
GCUGUCACCGAGAAACUGUGAAGUAUAUCUUAAACCUGGGCACUUAAAAGAUAUAUGGAGUUAGUAGUGCAACCUGCUCGGUCUGAUGAGUCCCAUUUCGGACGAAACAGC [CAUUUC] | 1.67 ± 0.022 | 1.82 ± 0.14
GCUGUCACCGAGAAACUGUGAAGUAUAUCUUAAACCUGGGCACUUAAAAGAUAUAUGGAGUUAGUAGUGCAACCUGCUCGGUCUGAUGAGUCCGAUUGUGGACGAAACAGC [GAUUGU] | 1.65 ± 0.037 | 1.82 ± 0.09
GCUGUCACCGAGAAACUGUGAAGUAUAUCUUAAACCUGGGCACUUAAAAGAUAUAUGGAGUUAGUAGUGCAACCUGCUCGGUCUGAUGAGUCCGAUUGCGGACGAAACAGC [GAUUGC] | 1.685 ± 0.0072 | 1.84 ± 0.12
GCUGUCACCGAGAAACUGUGAAGUAUAUCUUAAACCUGGGCACUUAAAAGAUAUAUGGAGUUAGUAGUGCAACCUGCUCGGUCUGAUGAGUCCAAUUCUGGACGAAACAGC [AAUUCU] | 1.769 ± 0.0077 | 1.9 ± 0.092
GCUGUCACCGAGAAACUGUGAAGUAUAUCUUAAACCUGGGCACUUAAAAGAUAUAUGGAGUUAGUAGUGCAACCUGCUCGGUCUGAUGAGUCCAAUUGAGGACGAAACAGC [AAUUGA] | 1.49 ± 0.096 | 1.72 ± 0.083
GCUGUCACCGAGAAACUGUGAAGUAUAUCUUAAACCUGGGCACUUAAAAGAUAUAUGGAGUUAGUAGUGCAACCUGCUCGGUCUGAUGAGUCCAAUUGUGGACGAAACAGC [AAUUGU] | 1.66 ± 0.061 | 1.83 ± 0.075
GCUGUCACCGAGAAACUGUGAAGUAUAUCUUAAACCUGGGCACUUAAAAGAUAUAUGGAGUUAGUAGUGCAACCUGCUCGGUCUGAUGAGUCCAAUUGCGGACGAAACAGC [AAUUGC] | 1.696 ± 0.016 | 1.83 ± 0.091
GCUGUCACCGAGAAACUGUGAAGUAUAUCUUAAACCUGGGCACUUAAAAGAUAUAUGGAGUUAGUAGUGCAACCUGCUCGGUCUGAUGAGUCCCAUUGCGGACGAAACAGC [CAUUGC] | 1.78 ± 0.056 | 1.85 ± 0.15
GCUGUCACCGAGAAACUGUGAAGUAUAUCUUAAACCUGGGCACUUAAAAGAUAUAUGGAGUUAGUAGUGCAACCUGCUCGGUCUGAUGAGUCCCAUUGGGGACGAAACAGC [CAUUGG] | 1.804 ± 0.0056 | 1.93 ± 0.15
GCUGUCACCGAGAAACUGUGAAGUAUAUCUUAAACCUGGGCACUUAAAAGAUAUAUGGAGUUAGUAGUGCAACCUGCUCGGUCUGAUGAGUCCCAUUGUGGACGAAACAGC [CAUUGU] | 1.78 ± 0.023 | 1.88 ± 0.046
GCUGUCACCGAGAAACUGUGAAGUAUAUCUUAAACCUGGGCACUUAAAAGAUAUAUGGAGUUAGUAGUGCAACCUGCUCGGUCUGAUGAGUCCCAUUGAGGACGAAACAGC [CAUUGA] | 1.602 ± 0.0057 | 1.76 ± 0.13
